In patent CN112679613A:
Substitutions are numbered along the chain they refer to.

B1: 3E2单克隆抗体 (antibody, V domains shown)
VH: EVKLVESGGGLVKPGGSLKLSCAASGFTFSNSAMRWVRQIPEKRLEWVAVIRAGGSLYFPDRVKSRFTISRDNARNICYLQMNSLRSDDTAMYYCARGREADGGYFDYWGQGTTLTVSS
VL: DIVLTQSPASLAVSLGQRATISCAASERREYYGTSLASWYQQKPGQPPKLLIYARSNVEYGVPARFSGSGSGTDFSLNIHPVEEDDIAMYFCGSSMKRPLRFGAGTKLELK
B2: 5A3单克隆抗体 (antibody, V domains shown)
VH: B1 VH with N31R, S32Y, R35S, V50A, R52S, A53S, R62S, S65G
VL: DIVLTQSPASLAVSLGQRATISCSASESCYYYGTSLAQWYQQKPGQPPKLLIYKLSNVRGGVPARFSGSGSGTDFSLNIHPVEEDDIAMYFCRQPMKVPLKFGAGTKLELK
B3: 5D7单克隆抗体 (antibody, V domains shown)
VH: EVKLVESGGGLVKPGGSLKLSCAASGFTFSDAAMRWVRQIPEKRLEWVASISSLISLYFPDSVESRFTISRDNARNICYLQMNSLRSDDTAMYYCARGAEASGGYFDQWGQGTTLTVSS
VL: B1 VL with A24S, R28H, R29P, A37M, S38A, R55S, Y60T, G93Q, S94V, R101D
B4: 4D6单克隆抗体 (antibody, V domains shown)
VH: EVKLVESGGGLVKPGGSLKLSCAASGFTFSQYRMGWVRQIPEKRLEWVAEISSASSLYFPDSVKSRFTISRDNARNICYLQMNSLRSDDTAMYYCARAREADNVYFDAWGQGTTLTVSS
VL: DIVLTQSPASLAVSLGQRATISCSQSESGTYYGTSLAMWYQQKPGQPPKLLIYAASNVESGVPARFSGSGSGTDFSLNIHPVEEDDIAMYFCTASMKAPLRFGAGTKLELK
B5: 4D3单克隆抗体 (antibody, V domains shown)
VH: EVKLVESGGGLVKPGGSLKLSCAASGFTFSASAQSWVRQIPEKRLEWVALQSRSGSLYFPASVKQRFTISRDNARNICYLQMNSLRSDDTAMYYCARSREASGGYIDEWGQGTTLTVSS
VL: DIVLTQSPASLAVSLGQRATISCSASESGGYYGTSLMNWYQQKPGQPPKLLIYSTSNEEKGVPARFSGSGSGTDFSLNIHPVEEDDIAMYFCGQSMKRPLRFGAGTKLELK
B6: 6F4单克隆抗体 (antibody, V domains shown)
VH: EVKLVESGGGLVKPGGSLKLSCAASGFTFSQYASLWVRQIPEKRLEWVAAISGQGSLYFPDSVCTRFTISRDNARNICYLQMNSLRSDDTAMYYCARGAAADGGYFDTWGQGTTLTVSS
VL: DIVLTQSPASLAVSLGQRATISCSASESVEFSGTSLTRWYQQKPGQPPKLLIYASQNVEGGVPARFSGSGSGTDFSLNIHPVEEDDIAMYFCCYSMKVPPRFGAGTKLELK
B7: 2D3单克隆抗体 (antibody, V domains shown)
VH: EVKLVESGGGLVKPGGSLKLSCAASGFTFSSAAMRWVRQIPEKRLEWVARIEEGGSAYFPDSVLVRFTISRDNARNICYLQMNSLRSDDTAMYYCARSRESPAGYFKLWGQGTTLTVSS
VL: DIVLTQSPASLAVSLGQRATISCCASESVHPYGTSLAMWYQQKPGQPPKLLIYASSRVEPGVPARFSGSGSGTDFSLNIHPVEEDDIAMYFCSSSGQVPARFGAGTKLELK
B8: 6G5单克隆抗体 (antibody, part only; not given: Light chain variable region, V domains shown, part only)
VH: EVKLVESGGGLVKPGGSLKLSCAASGFTFSAYAMTWVRQIPEKRLEWVAAISPTGSLYFPGSVSGRFTISRDNARNICYLQMNSLRSDDTAMYYCARGVEADSQYFDKWGQGTTLTVSS

What follows are binders tested against 肝癌Huh-7细胞 (Huh-7癌细胞抗原; Huh-7细胞裂解蛋白) (assay: SPR, BIAcore T-200, 1:1 Langmuir model; binding to liver cancer Huh-7 cells).

Kd [nM] | Binder
0.56 | B1
0.58 | B2
0.45 | B3
0.31 | B4
0.29 | B5
0.62 | B6
0.23 | B7
0.34 | B8

The binders below were run against 肝癌Huh-7细胞 (Huh-7癌细胞抗原; Huh-7细胞裂解蛋白) (assay: indirect ELISA; plate coated with 2 μg/mL Huh-7 cell antigen; purified ascites antibody in 2-fold dilutions).

抗体效价 | Binder
2.56e+06 | B1
2.56e+06 | B2
5.12e+06 | B3
5.12e+06 | B4
5.12e+06 | B5
2.56e+06 | B6
5.12e+06 | B7
5.12e+06 | B8
